Residue numbers refer to the chain shown, from its start. Where two headings read alike, the source gives them in different places.
How the values were obtained:
[1] = target: T1, human coagulation factor XI (human, UniProt P03951 19-625); experiment: SPR (Biacore T200), antibody captured on anti-human IgG CM5 chip, FXI flowed
T1 construct: Bought from Enzyme Research Laboratory (HFXI 1111); also called FXI; human FXI
Procedure: (§1) The affinity of anti-FXI/FXIa antibodies to FXI/FXIa were determined using surface plasmon resonance (SPR) technology performed on the BIAcore T200 instrument. […] These antibodies were captured onto a Biacore CM5 sensor chip that was pre-immobilized with an anti-human IgG antibody.
(§2) Then different concentrations of the purified antigen FXI or FXIa (0.005-1 μg/mL) were allowed to flow through the CM5 chip for 180 s for association with the anti-FXI/FXIa antibody, followed by a time of 1800 s for dissociation. The binding data was collected and the affinity between FXI/FXIa and the test antibodies was analyzed using the Biacore Evaluation Software provided by GE Healthcare.

human factor XIa [2] = target: T2, human factor XIa (human, UniProt P03951 19-387; P03951 388-625); experiment: SPR (Biacore T200), antibody captured on anti-human IgG CM5 chip, FXIa flowed
T2 construct: also called FXIa
Procedure: as §1, §2

human factor XIa [3] = target: T2, human factor XIa; experiment: apparent Ki, inhibition of FXIa (5 nM) cleavage of chromogenic substrate S-2366
human factor XIa [4] = target: T2, human factor XIa; experiment: SPR, antibody captured on sensor chip, FXIa flowed
[5] = target: T1, human coagulation factor XI; experiment: SPR (Biacore T200), antibody captured on anti-human IgG CM5 chip, FXI 0.063 to 6.25 nM flowed
Procedure: (§3) The interaction of the antibodies with FXI was determined by the SPR assay on a Biacore T200 system (Biacore, GE Healthcare). Briefly, human IgG capture antibody (Biacore, GE Healthcare) was pre-immobilized on a CM5 sensor chip (GE Healthcare), and test antibodies were captured by flowing through the chip. The final amount of the test antibodies captured was adjusted to an equal amount of 15 response units (RU) by adjusting the capture time. Then, antigen FXI was allowed to flow through the chip for 180 s for association and then for 1200 s for dissociation. […] The data were collected and the affinities between the test antibodies and FXI were analyzed using the Biacore Evaluation Software.
(§4) The test antibodies were captured on a sensor chip, and then indicated concentrations of FXI were allowed to flow through the chip.

[6] = target: T1, human coagulation factor XI; experiment: SPR, antibody captured on sensor chip, FXI flowed
Procedure: as §3, §4

human factor XIa [7] = target: T2, human factor XIa; experiment: SPR (Biacore T200), antibody captured on sensor chip, FXIa 0.063 to 6.25 nM flowed
human factor XIa [8] = target: T2, human factor XIa; experiment: cell-based or functional assay
human factor XIa [9] = target: T2, human factor XIa; experiment: SPR (Biacore T200), antibody captured on sensor chip, FXIa 0.063 to 6.25 nM flowed; remark: listed apart in the source
[10] = target: T1, human coagulation factor XI; experiment: SPR (Biacore T200), antibody captured on anti-human IgG CM5 chip, FXI 0.063 to 6.25 nM flowed; remark: listed apart in the source
Procedure: as §3, §4

human factor XIa [11] = target: T2, human factor XIa; experiment: cell-based or functional assay; remark: listed apart in the source
[12] = target: T1, human coagulation factor XI; experiment: capture ELISA screening of hybridomas from animals immunized with human FXI

B1: h-19F6 (antibody, V domains shown)
VH: EVQLVESGGGLVQPGRSLRLSCTASGFTFSKYAMSWVRQAPGKGLEWVSAINYDGSTTYYADSVKGRFTLSRDNSKNTLYLQMNSLRAEDTAVYYCARHPFNNFGIWFAYWGQGTLVTVS
VL: QFQLTQPSSVSASVGDRVTITCERSSGDIGDSYVSWYQQKPGQPPKNVIYADDQRPSGVPDRFSGSIDGSGNSASLTISSLQAEDAADYFCQSYDSNIDFNPVFGGGTKLEVK
notes: Humanized rat antibody in human IgG4 form (variable regions linked to human IgG4 Fc domain, expressed in CHO cells); also called humanized 19F6
[1]
  Kd: 0.0222 nM
Human factor XIa [2]
  Kd: 0.0258 nM
Human factor XIa [3]
  Ki: 0.67 nM
Human factor XIa [4]
  Kd: 0.026 nM
[5]
  koff: 5.88e-05 s⁻¹
  kon: 2.65e+06 M⁻¹ s⁻¹
[6]
  Kd: 0.022 nM
Human factor XIa [7]
  koff: 8.36e-05 s⁻¹
  kon: 3.24e+06 M⁻¹ s⁻¹
Human factor XIa [8]
  IC50 (read off the curve): ~3 nM

B2: h-42A5 (antibody, V domains shown)
VH: QVTLKESGPVLVKPTETLTLTCTVSGFSLTSYHLHWIRQPPGKALEWMGLMWRDGDTSYNSRLKSRLTISRDTSKSQVVLTMTNMDPVDTATYYCARGMTLATPFLYWGQGTLVTVSS
VL: DVVLTQTPLSLSVTPGQPASISCRSSQSLESSDGNTYLEWYLQKPGQSPQLLIYGVSNRFSGVPDRFSGSGSGTDFTLKISRVEAEDLGVYYCFQATRDPFTFGQGTKLEIKR
notes: Humanized antibody in human IgG4 form; also called humanized 42A5
Human factor XIa [9]
  koff: 1.38e-05 s⁻¹
  kon: 1.69e+06 M⁻¹ s⁻¹
[1]
  Kd: 0.0357 nM
Human factor XIa [2]
  Kd: 0.00814 nM
Human factor XIa [3]
  Ki: 1.43 nM
Human factor XIa [4]
  Kd: 0.0081 nM
[10]
  koff: 4.07e-05 s⁻¹
  kon: 1.14e+06 M⁻¹ s⁻¹
[6]
  Kd: 0.036 nM
Human factor XIa [11]
  IC50 (read off the curve): ~5 nM

B3: h-34F8 (antibody, V domains shown)
VH: QVQLQESGPGLVKPSETLSLTCTVSGFSLTTYHVHWVRQPPGKGLEWIGIMWRDGDTYYNSSLKSRVTISRDTSKNQVSLKLSSVTAADTAVYFCARGGTLTTPFTYWGQGTLVTVSS
VL: B2 VL with S12P, Q17E, S32R, L51V, I53L, F60L, L88V, R98H, D99G
notes: Humanized antibody in human IgG4 form; also called humanized 34F8
[1]
  Kd: 0.0195 nM
Human factor XIa [2]
  Kd: 0.00385 nM
Human factor XIa [3]
  Ki: 2.08 nM

B4: 3G12 (antibody, V domains shown)
VH: QVTLKESGPGILQPSQTLSLTCSFSGFSLNTPGMGVSWIRQPSGKGLEWLAHIYWDDDKRFNPSLKSRLTISKDTSRDQVFLMITSVDTADSATYFCARKGRGPFTYWGQGTLVTVSS
VL: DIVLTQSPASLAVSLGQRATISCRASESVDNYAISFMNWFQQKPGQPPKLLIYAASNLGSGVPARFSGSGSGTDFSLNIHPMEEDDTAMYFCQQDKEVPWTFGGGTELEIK
notes: Hybridoma monoclonal antibody
[12]
  binding result: binds

B5: 5B2 (antibody, V domains shown)
VH: B4 VH with P32S, F61Y, N62K, D78N, S92T, F96Y, A98V, T106A, Y107N, S118A
VL: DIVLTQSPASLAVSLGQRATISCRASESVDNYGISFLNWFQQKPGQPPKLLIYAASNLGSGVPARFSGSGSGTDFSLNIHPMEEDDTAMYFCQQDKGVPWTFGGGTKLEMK
notes: Hybridoma monoclonal antibody
[12]
  binding result: binds

B6: 7C9 (antibody, V domains shown)
VH: QIQLVQSGPELKKPGETVKISCKASGYIFTDYGMNWVKQAPGKGLKWMGWINTYTGEPTYADDFKGRFVFSLETSASTAYLQINNLKNEDTATFFCARRRMGYAVDYWGQGTSVTVSS
VL: DIQMTQSPSSLSASLGERVSLTCRASQDIDIRLNWLRQEPDGTIKRLIYATSSLDSGVPKRFSGSRSGSDYSLTISSLESEDFVDYYCLQYASSPFTFGSGTKLEIK
notes: Hybridoma monoclonal antibody
[12]
  binding result: binds

B7: 13F4 (antibody, V domains shown)
VH: EVQLKESGPGLVQPSQTLSLTCTVSGFSLTDYSVHWVRQPPGKGLEWMGVMWSGGSTAYNPALTSRLTISRDTSKSQVFLKMNSLQTEDTAIYYCTRAPFNNWGNWLPYWGQGTLVTVSS
VL: QFTLTQPKSVSGSLRSTITIPCERSSGDIGDSYVSWYQQHLGRPPINVIYADDQRPSEVSARFSGSIDSSSNSASLTITNLQMDDEADYFCQSYDTYMDVVFGGGTKLNVL
notes: Hybridoma monoclonal antibody
[12]
  binding result: binds

B8: 19F6 (antibody, V domains shown)
VH: EVQLVESGGGLVQPGRSLRLSCTASGFTFSKYVMAWVRQAPTKGLEWVASINYDGSTTYYRDSVQGRFTLSRDNAKTTLYLQMDSLRSEDTATYYCARHPFNNFGIWFAYWGQGTLVTVSS
VL: QFTLTQPKSVSGSLRSTITIPCERSSGDIGDSYVSWYQQHLGRPPINVIYADDQRPSEVSDRFSGSIDTSSNSASLTITNLQMDDAADYFCQSYDSNIDFNPVFGGGTKLTVL
notes: Hybridoma monoclonal antibody (rat, immunized with human FXI)
[12]
  binding result: binds

B9: 21F12 (antibody, V domains shown)
VH: EVQLVESGGGLVQPGRSLKLSCVASGFTFNNHWMTWIRQAPGKGLEWVASITDNGGSTYYPDSVKGRFTISRDNAKSTLYLHMNSLRSEDTATYYCTRDRYDSDGYYYVRYYVVDAWGQGASVTVSS
VL: DVRMTQSPASLSASLGETVNIECLASEDIYSDLAWYQQKPGKSPQLLIYNANSLQNGVPSRFSGSGSGTQYSLKISTLQSEDVATYFCQQYSNYRRTFGGGTKLEIN
notes: Hybridoma monoclonal antibody
[12]
  binding result: binds

B10: 34F8 (antibody, V domains shown)
VH: QVQLKESGPGLVQPSQTLSLTCTVSGFSLTTYHVHWVRQPPGKGLEWMGIMWRDGDTSYNSVLKSRLSISRDISKSQVFLKMSSLQTEDTATYFCARGGTLTTPFTYWGQGTLVTVSS
VL: DVVLTQTPGSLSVTLGQQVSISCRSSQSLESRDGNTYLEWYLQKPGQSPQVLLYGVSNRLSGVPDRFLGRGSGADFTLKISRVEPEDLGVYYCFQATHGPFTFGSGTKLEMK
notes: Hybridoma monoclonal antibody
[12]
  binding result: binds

B11: 38E4 (antibody, V domains shown)
VH: EVQLQESGPGLVKPSQSLSLTCSVSGFSITNNYWGWIRKFPRNKMEWIGHISYSGSTNYNPSLKSRISITRDSSKSQFFLQLNSLTTEDTATYYCARGSYYYSASGYFDYWGQGITVTVSS
VL: DIRMTQSPASLSASLGETVNIECLASEDIYSDLAWYQQKPGKSPQLLIYNANSVQNGVPSRFSGSGSGTQYSLKINSLQSEDVATYFCQQFNSYPNTFGAGTKLEIK
notes: Hybridoma monoclonal antibody
[12]
  binding result: binds

B12: 42A5 (antibody, V domains shown)
VH: QVQLKESGPGLVQPSQTLSLTCTVSGFSLTSYHLHWIRQPPGKGLEWMGLMWRDGDTSYNSRLKSRLSITRDTSKSQVFLKMSGLQTEDTATYYCARGMTLATPFLYWGQGTLVTVSS
VL: DVVLTQTPGSLSVTLGDPASMSCRSSQSLESSDGNTYLEWYLQKSGQSPQLLIYGVSNRFSGVPDRFAGSGSGTDFTLKISRVEPEDLGVYYCFQATRDPFTFGSGTKLEIN
notes: Hybridoma monoclonal antibody
[12]
  binding result: binds

B13: 42F4 (antibody, V domains shown)
VH: EVQLQESGPGLVKPSQSLSLTCSVTGYSITNHYWGWIRKFPGNKMEWIGHISNSGGTNYNPSLKSRISITRDTSKNQFFLQLKSVTTEDTATYYCTRGSYYYSASGYFDYWGQGVLVTVSS
VL: B11 VL with Y30H, V54L, N76T, F91Y, N92T, S93N, K107N
notes: Hybridoma monoclonal antibody
[12]
  binding result: binds

B14: 45H1 (antibody, V domains shown)
VH: B13 VH with T21I, N31T, H32T, G56S, I69V, K75T, K83N, T96A, Q113H, L116M
VL: B11 VL with E22G, S53N, V54L, F91Y
notes: Hybridoma monoclonal antibody
[12]
  binding result: binds

Source: patent US20200024362A1 (SHANGHAI BENEMAE PHARMACEUTICAL, published 2020)
